Measurements: patent US20220073618A1 (NANJING GENSCRIPT BIOTECH, published 2022)

Assays:
[1] = target: T1, human PD-L1 protein (human, UniProt Q9NZQ7 19-238, limits assumed); assay: ELISA on human PD-L1 protein; antibody after 14 days at 40 C (D14)
Description: (§1) The antibody samples were treated separately at 40° C., and then centrifuged to remove the pellet. Then the amount of remaining antibody was evaluated by ELISA. (test after treatment at 40° C. for 7 days (D7) and 14 days (D14) separately; for each test, the untreated sample (D0) stored at −80° C. is used as a control) (FIG. 3)

[2] = target: T2, PD-L1-HIS recombinant protein (human, UniProt Q9NZQ7 19-238, limits assumed); assay: SPR (Biacore 8K), antibody captured on chip, PD-L1-HIS analyte 2.5-80 nM, 1:1 binding model
T2 construct: not shown: His tag
T2 sequence (Q9NZQ7 19-238 limits assumed): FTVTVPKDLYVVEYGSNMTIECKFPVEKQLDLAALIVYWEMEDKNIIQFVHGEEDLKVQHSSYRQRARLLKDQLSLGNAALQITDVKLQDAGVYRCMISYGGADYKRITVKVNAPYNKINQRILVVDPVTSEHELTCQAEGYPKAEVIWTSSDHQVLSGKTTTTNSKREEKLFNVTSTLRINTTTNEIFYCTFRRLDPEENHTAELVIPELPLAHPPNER
Description: The chip surface was equilibrated with HBS-EP buffer at a flow rate of 10 μl/min for 5 min, and then a 1:1 mixture of “NHS+EDC” was injected at a flow rate of 10 μl/min for 420 sec to activate the chip. The capture antibody (goat anti-murine IgG) diluted in 10 mM sodium acetate buffer was injected for about 420 sec at a flow rate of 10 μl/min for coupling, and finally ethanolamine was injected for 420 sec at a flow rate of 10 μl/min to block the surface.
Three pre-cycles were performed with the HBS-EP buffer as a sample to balance the chip to stabilize the baseline. The antibody diluted in HBS-EP buffer was injected for 30 sec at a flow rate of 10 μl/min (where the antibody-antigen binding signal was controlled to about 100 RU by adjusting the capture time between 0-5 min), and then the chip was equilibrated with the buffer for 1 min. The low-concentration antigen 2.5 nM PD-L1-HIS was injected at a flow rate of 30 μl/min for 240/300 seconds, to allow the antigen to bind to the antibody, and then the buffer was injected at a flow rate of 30 μl/min for 720/600 seconds for dissociation. 50 mM HCl were injected three times each for 15 s at a flow rate of 100 μl/min for regeneration, to complete one cycle. The antigen concentration was changed (such as 5 nM PD-L1-HIS) to carry out the cycle for measurement at a next gradient concentration until all gradient concentrations (2.5 nM, 5 nM, 10 nM, 20 nM, 40 nM, 80 nM PD-L1-HIS) and the replicate (such as 10 nM PD-L1-HIS) were tested.
The experimental data was double subtracted (minus the background values of the control channel and zero concentration), and fitted to the “1:1 binding” model in the Biacore 8K evaluation software. Biacore 8K was used to determine the affinity of the antibody to the PD-L1-HIS recombinant protein.

[3] = target: T1, human PD-L1 protein; assay: ELISA on the antigen (human PD-L1); antibody untreated (0), after oxidative stress (AAPH, 24 h) or deamidation stress (pH 9.0, 48 h)
[4] = target: T1, human PD-L1 protein; assay: ELISA on human PD-L1 protein; untreated antibody (D0) and antibody after 7 days at 40 C (D7)
Description: as §1

[5] = target: T1, human PD-L1 protein; assay: ELISA on human PD-L1 protein; antibody treated for 20 min at 70 C
Description: (§2) The antibody samples were treated for 20 min at various temperature gradients respectively, and then centrifuged to remove the pellet. Then the amount of remaining antibody was evaluated by ELISA. (The temperature gradient includes: room temperature, 30° C., 40° C., 50° C., 60° C., 70° C., […]) (FIG. 4)

[6] = target: T3, human PD-L1 on cell surface (human, UniProt Q9NZQ7 19-290); assay: cell-based or functional assay
T3 sequence (Q9NZQ7 19-290): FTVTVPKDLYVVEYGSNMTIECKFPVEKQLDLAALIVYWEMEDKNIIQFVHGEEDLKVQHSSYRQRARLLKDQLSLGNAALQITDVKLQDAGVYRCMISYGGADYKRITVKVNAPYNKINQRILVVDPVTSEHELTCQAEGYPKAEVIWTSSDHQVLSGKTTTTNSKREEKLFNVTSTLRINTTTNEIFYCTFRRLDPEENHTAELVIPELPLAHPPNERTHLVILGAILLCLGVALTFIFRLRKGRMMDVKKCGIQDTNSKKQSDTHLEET

[7] = target: T1, human PD-L1 protein; assay: ELISA on human PD-L1 protein; antibody treated for 20 min (all overlapping curves, including the -80 C control)
Description: as §2

[8] = target: T1, human PD-L1 protein; assay: ELISA on human PD-L1 protein; antibody treated for 20 min at room temperature to 70 C and -80 C control (curves not told apart)
Description: as §2

[9] = target: T1, human PD-L1 protein; assay: ELISA on the antigen (human PD-L1); antibody untreated (0), after oxidative stress (AAPH, 24 h) or deamidation stress (pH 9.0, 48 h); curves not told apart
[10] = target: T4, biotin-labeled PD-L1-Fc (human, UniProt Q9NZQ7 19-238, limits assumed, biotin-labeled (sites not given)); assay: flow cytometry: biotin-PD-L1-Fc binding to CHO cells expressing human PD-1 with titrated antibody, fitted curve; enhancement
T4 construct: not shown: Fc part
T4 sequence (Q9NZQ7 19-238 limits assumed): as the sequence (Q9NZQ7 19-238 limits assumed) above
Description: (§3) In the FACS test, CHO cells expressing human PD-1 and parent cells as a negative control were washed 3 times with PBS. 2.5×10⁵ detection cells and 50 μl of 3-fold serial dilutions of purified antibody with an initial concentration of 300 nM were added to a 96-well plate. […] Then the cells were washed 3 times with PBS, 100 μl of iFluor647-labeled streptavidin (1 μg/ml) was added, and the cells were incubated at 4° C. for 45 min. Finally, the cells were washed 3 times with PBS, and the signal was read on FACS BD Calibur.

[11] = target: T4, biotin-labeled PD-L1-Fc; assay: ELISA: biotin-PD-L1-Fc binding to coated human PD-1 with titrated antibody, OD 450 nm, fitted curve; enhancement
Description: (§4) The ELISA plate (Nunc) was coated with 100 μl/well of 0.5 μg/ml recombinant human PD-1 protein in PBS at 4° C. overnight. The plate was washed with PBS-T (0.05% Tween), and blocked with 200 μl/well of PBST containing 1% BSA at 37° C. for 0.5 hr. Then the blocking buffer was discarded, and 50 μl of 10 μg/ml purified antibody to be tested was added to the first test well. 3-fold serial dilutions were made, and a total of 11 test concentration gradients were given. […] The plate was washed 3 times with PBST, and incubated with 100 μl/well of Streptavidin-HRP (SA-HRP, GenScript) at 37° C. for 10 min. Finally, the plate was washed 5 times with PBST, and then a TMB developing solution (GenScript) was added and incubated at room temperature for 15 min in the dark. The reaction was terminated by adding 50 μl of 1M HCl stop solution (Sigma). The plate was read at 450 nm on a microplate reader.

[12] = target: T4, biotin-labeled PD-L1-Fc; assay: flow cytometry: biotin-PD-L1-Fc binding to CHO cells expressing human PD-1 with titrated antibody; enhancement of PD-L1/PD-1 binding
Description: as §3

[13] = target: T1, human PD-L1 protein; assay: ELISA on human PD-L1 protein; antibody kept at 40 C for 0 (D0), 7 (D7) or 14 (D14) days
Description: as §1

[14] = target: T5, monkey PD-L1 on cell surface (monkey); assay: flow cytometry on CHO cells expressing monkey PD-L1, fitted curve
T5 construct: whole, on cells; also called monkey PD-L1 cell line; CHO cells overexpressing monkey PD-L1
Description: (§5) CHO cells expressing human or monkey PD-L1 and parent cells as a negative control were washed 3 times with PBS. 2.5×10⁵ detection cells and 100 μl of 3-fold serial dilutions of purified antibody with an initial concentration of 300 nM were added to a 96-well plate and incubated at 4° C. for 1 hr. […] Finally, the cells were washed 3 times with PBS, and the signal was read on FACS BD Calibur.
Moreover, CHO cells overexpressing monkey PD-L1 were used to test the cross-recognition binding to monkey PD-L1 by the antibodies.

[15] = target: T1, human PD-L1 protein; assay: ELISA on the antigen (human PD-L1); antibody untreated (0), after oxidative stress (AAPH, 24 h) or deamidation stress (pH 9.0, 48 h); remark: listed apart in the source
[16] = target: T4, biotin-labeled PD-L1-Fc; assay: ELISA: biotin-PD-L1-Fc binding to coated human PD-1 with titrated antibody; enhancement of PD-L1/PD-1 binding
Description: as §4

[17] = target: T3, human PD-L1 on cell surface; assay: flow cytometry on CHO cells expressing human PD-L1, fitted curve
Description: as §5

T1 sequence (Q9NZQ7 19-238 limits assumed): as above

Row | EC50 (read off the curve) [1] [mg/L] | Kd [2] [nM] | koff [2] [s⁻¹] | kon [2] [M⁻¹ s⁻¹] | EC50 (read off the curve) [4] [mg/L] | Bottom (best-fit value) of IL-2 release, mixed lymphocyte reaction [6] | EC50 (µg/ml) of IL-2 release, mixed lymphocyte reaction [6] [µg/mL] | LogEC50 (best-fit value) of IL-2 release, mixed lymphocyte reaction [6] | Span (best-fit value) of IL-2 release, mixed lymphocyte reaction [6] | Top (best-fit value) of IL-2 release, mixed lymphocyte reaction [6] | EC50 (read off the curve) [8] [mg/L] | other results | Binder
1 | ~0.02 | 0.82 | 0.000152 | 185000 | ~0.01 | 1140 | 0.0311 | -1.51 | 950 | 2090 |  | EC50 (read off the curve) [3]: ~0.01 mg/L; EC50 (read off the curve) [5]: ~0.03 mg/L; EC50 (read off the curve) [7]: ~0.01 mg/L | AH01950 (antibody, human IgG1, V domains shown, also called mPD-L1Ab-CBM clone AH01950) VH: QVQLQESGPGLVKPSQTLSLTCTVSGYSITSGYTWHWIRQHPGKGLEWIGYIHYSGSTKYNPSLKSRVTISRDTSKNQFSLKLSSVTAADTAVYYCARNSLFASWGQGTLVTVSS VL: DIVLTQSPDSLAVSLGERATINCRASESVDTYGDSFMHWFQQKPGQPPKLLIYRASNLESGVPDRFSGSGSGTDFTLTISSLQAEDVAVYYCQQSNEAPYTFGGGTKLEIK
2 | ~0.02 | 1.27 | 0.000274 | 216000 | ~0.01 | 1420 | 0.0406 | -1.39 | 930 | 2350 | ~0.01 | EC50 (read off the curve) [9]: ~0.02 mg/L | AH01963 (antibody, human IgG1, V domains shown, also called mPD-L1Ab-CBM clone AH01963) VH: QVQLQESGPGLVKPSQTLSLTCTVSGYSITSGYTWHWIRQHPGKGLEWIGYIHYSGSTKYNPSLKSRVTISRDTSKNQFSLKLSSVTAADTAVYYCARNSLFASWGQGTLVTVSS VL: DIVLTQSPDSLAVSLGERATINCRASESVDTYGDSFMHWYQQKPGQPPKLLIYRASNLESGVPDRFSGSGSGTDFTLTISSVQAEDVAVYYCQQSNEAPYTFGGGTKLEIK
3 |  | 0.835 | 0.000155 | 186000 |  | 1170 | 0.0295 | -1.53 | 866 | 2030 | ~0.01 | LogEC50 [10]: 1.45; LogEC50 [11]: 1.34; EC50 [12]: 28.1 nM; EC50 (read off the curve) [13]: ~0.01 mg/L; EC50 [14]: 3.29 nM; LogEC50 [14]: 0.518; EC50 (read off the curve) [15]: ~0.01 mg/L; EC50 [16]: 0.0219 mg/L; EC50 [17]: 0.501 nM; LogEC50 [17]: -0.3 | AH01946 (antibody, human IgG1, V domains shown, also called mPD-L1Ab-CBM clone AH01946) VH: QVQLQESGPGLVKPSQTLSLTCTVSGYSITSGYTWHWIRQHPGKGLEWIGYIHYSGSTKYNPSLKSRVTISRDTSKNQFSLKLSSMTAADTAVYYCARNSLFASWGQGTLVTVSS VL: DIVLTQSPDSLAVSLGERATINCRASESVDTYGDSFMHWFQQKPGQPPKLLIYRASNLESGVPDRFSGSGSGTDFTLTISSVQAEDVAVYYCQQSNEAPYTFGGGTKLEIK
